Patent US20140363427A1 (CRUCELL HOLLAND B V, published 2014)
Read-outs that look alike come from different tables or passages of the source.

Experiments:
[1] = biological target: T1, native RSV F protein from the RSV A2 strain (Respiratory Syncytial Virus strain A2, UniProt P03420 26-574); assay: cell-based or functional assay
[2] = biological target: T2, recombinant RSV F protein, strain A2, extracellular domain (Respiratory Syncytial Virus strain A2, UniProt P03420 26-524); assay: ELISA, IgG titrated, estimated EC50
T2 construct: also called RSV F1 lysate (recombinant); RSV F lysate

[3] = biological target: F protein of RSV B-wash (strain 18537) (respiratory syncytial virus B, strain …, UniProt P13843 26-574); assay: cell-based or functional assay
F protein of RSV B-1 = F protein of RSV B-1 (respiratory syncytial virus B-1, UniProt O36634 26-574); assay: cell-based or functional assay
[4] = biological target: T1, native RSV F protein from the RSV A2 …; assay: ELISA, purified Fab, estimated EC50
[5] = biological target: T1, native RSV F protein from the RSV A2 …; assay: ELISA, IgG titrated, estimated EC50
[6] = biological target: T1, native RSV F protein from the RSV A2 …; assay: cell-based or functional assay; remark: listed apart in the source
[7] = biological target: T2, recombinant RSV F protein, strain A2, …; assay: ELISA, purified Fab, estimated EC50
[8] = biological target: F protein of the parental RSV A2 strain (Example 11) (Respiratory Syncytial Virus strain A2, UniProt P03420 26-574); assay: cell-based or functional assay
[9] = biological target: T2, recombinant RSV F protein, strain A2, …; assay: comparison of ELISA EC50

B1: Fab 90D3 (Fab, V domains shown)
VH: QVQLVESGGGLVKPGGSLRLSCVGSGFTLKNYEMNWVRQAPGQGLQYISYISSSGNVVKYVDSVQGRFTISRDNAGNSLYLQMNNLRAEDTATYYCVRGFSIDKYDSSVDEYWGQGIAVTVSS
VL: AIRLTQSPSSLSASVGDRVSITCRASQSISNFLNWYQQKPGRAPKLLISAASSLQGGVPSRFSGSGSGTDFTLTISSLQPEDFATYYCQQTYISLYTFGQGTKLEIKR
ED50, plaque reduction, RSV A2 [1]: 800 pM

B2: IgG form of 14G3 (antibody, V domains shown)
VH: QVQLQESGPGLVKPSQTLSLTCTVSGASISSDNHYWSWIRQPPGKGLEWIASIYYTGGTNYNPSLKSRLALSIDTSGDQFSLKLSSVTAADTAVYYCVRGLFFITARPYWYFDLWGRGTLVAVSS
VL: DVVMTQTPLSLSVTPGEPASISCRSSQSLLDSDDGNTYLDWYLQKPGQSPQLLIYTLSYRASGVPDRFSGSGSGTDFTLKISRVEADDVGIYYCMQRMEFPFTFGQGTRLDIKR
EC50 [2]: 251 pM | ED50, plaque reduction, RSV B/wash [3]: 4500 pM | ED50, plaque reduction, RSV B-1 (F protein of RSV B-1): 10700 pM

B3: Fab 38F10 (Fab, V domains shown)
VH: EVQLLESGGDVVQPGKSLRLSCTASGFSITDFGIHWVRQAPGKGLEWVALISYNEVNIHYGESVRGRFTISRDIAKNTVYLQMNGLRPEDTGVYFCARDVWEDSWLSLACFQEWGQGSLVVVSS
VL: DIQLTQSPPTLSASVGDRVSMTCRASQSISNWLAWYQQKPGKAPKLLIQKASNLEDGVPSRFTASGFGTEFTLTISSLQPDDFATYYCQQYNSYSGLSFGGGTKVDIKR
EC50 [4]: 177 pM | ED50, plaque reduction, RSV A2 [1]: 800 pM | ED50, plaque reduction, RSV A2 (mass concentration) [1]: 0.04 µg/mL

B4: IgG form of 38F10 (antibody, V domains shown)
VH: EVQLLESGGDVVQPGKSLRLSCTASGFSITDFGIHWVRQAPGKGLEWVALISYNEVNIHYGESVRGRFTISRDIAKNTVYLQMNGLRPEDTGVYFCARDVWEDSWLSLACFQEWGQGSLVVVSS
VL: DIQLTQSPPTLSASVGDRVSMTCRASQSISNWLAWYQQKPGKAPKLLIQKASNLEDGVPSRFTASGFGTEFTLTISSLQPDDFATYYCQQYNSYSGLSFGGGTKVDIKR
EC50 [5]: 35 pM | ED50, plaque reduction, RSV B/wash [3]: 5300 pM | ED50, plaque reduction, RSV A2 [6]: 553 pM | ED50, plaque reduction, RSV B-1 (F protein of RSV B-1): 1400 pM

B5: Fab 17C9 (Fab, V domains shown)
VH: QVQLQQWGAGLVRPSETLSLTCAVYGDSFNDYFWTWIRQTPGKGLEWIGEISHSGSTNYSPSLKSRVTISVDTSKNQFSLKLSAVTAADTTVYFCARGVRSRPPPSYRGSGSPPYYHYGMDVWGQGTTVTVSS
VL: EIVLTQSPSTLSASVGDRVTITCRASQNINTWLAWYQQKPGKAPKLLIYAASFLQSGVPSRFSGSGSGTDFTLTISNLQPEDFATYFCQQANSFPRTFGQGTKVEVKR
notes: also called 17C9 Fab
ED50, plaque reduction, RSV A2 [1]: 352 pM | EC50 [7]: 136 pM | ED50, plaque reduction, RSV A2 parental [8]: 436 pM

B6: IgG form of 17C9 (antibody, V domains shown)
VH: QVQLQQWGAGLVRPSETLSLTCAVYGDSFNDYFWTWIRQTPGKGLEWIGEISHSGSTNYSPSLKSRVTISVDTSKNQFSLKLSAVTAADTTVYFCARGVRSRPPPSYRGSGSPPYYHYGMDVWGQGTTVTVSS
VL: EIVLTQSPSTLSASVGDRVTITCRASQNINTWLAWYQQKPGKAPKLLIYAASFLQSGVPSRFSGSGSGTDFTLTISNLQPEDFATYFCQQANSFPRTFGQGTKVEVKR
EC50 [5]: 59 pM | ED50, plaque reduction, RSV B/wash [3]: 860 pM | ED50, plaque reduction, RSV A2 [6]: 363 pM | ED50, plaque reduction, RSV B-1 (F protein of RSV B-1): 329 pM

B7: Fab 30D8 (Fab, V domains shown)
VH: EVQLLQSGAELKKPGASVKISCKTSGFTFSGHTIAWVRQAPGQGLEWMGWVSTNNGNTEYAQKIQGRVTMTMDTSTSTVYMELRSLTSDDTAVYFCAREWLVMGGFAFDHWGQGTLLTVSS
VL: QSVLTQASSVSVAPGQTARITCGANNIGSQNVHWYQQKPGQAPVLVVYDDRDRPSGIPDRFSGSNSGNTATLTISRVEAGDEADYYCQVWDSSRDQAVIFGGGTKLTVLG
ED50, plaque reduction, RSV A2 [1]: 107 pM

B8: Fab 56E11 (Fab, V domains shown)
VH: EVQLQESGPGLVKPSETLSLTCSVSGVSINSNNYFWAWIRQPPGKGLEWIGNIYYGGSTHYNASLQSRVTISVDTSKSQFSLKLNSVTSADTAVYYCAASESIFWDYYYGLDVWGQGTTVTVSS
VL: QAVLTQPPSASGSPGQSVTISCTGTSSDVGGYNYVSWYQQHPGKAPRLIISEVTKRPSGVPGRFSGSKSGNTASLTVSGLQAEDEADYYCSSYAGSRHVVFGGGTKLTVLG
notes: also called 56E11 Fab
ED50, plaque reduction, RSV A2 [1]: 930 pM | EC50 [7]: 545 pM

B9: IgG form of 56E11 (antibody, V domains shown)
VH: EVQLQESGPGLVKPSETLSLTCSVSGVSINSNNYFWAWIRQPPGKGLEWIGNIYYGGSTHYNASLQSRVTISVDTSKSQFSLKLNSVTSADTAVYYCAASESIFWDYYYGLDVWGQGTTVTVSS
VL: QAVLTQPPSASGSPGQSVTISCTGTSSDVGGYNYVSWYQQHPGKAPRLIISEVTKRPSGVPGRFSGSKSGNTASLTVSGLQAEDEADYYCSSYAGSRHVVFGGGTKLTVLG
fold less affinity than the IgG form of 30D8 [9]: ~10 fold | EC50 [2]: 73 pM | ED50, plaque reduction, RSV B/wash [3]: 282 pM | ED50, plaque reduction, RSV B-1 (F protein of RSV B-1): 295 pM

B10: Fab 69F6 (Fab, V domains shown)
VH: QMQLVQSGAEVRKPGESLKIACKGSGYSFTSYWIAWVRQMPGKGLEWLGIIFPNDSDATYSPSFQGQVTMSVDKSISTAYLQWNSLKASDTAVYFCARQYYLGSFESWGQGTTVTVSS
VL: EIVLTQSPSSLSASVGDRVTISCQASQDISNYLNWYQQKPGKAPRLLIYDASYLDTGVPSRFSGSGSGTDFTFTISSLQPEDFATYYCQQYDDLRGGFTFGPGTKVDVKR
notes: also called 69F6 Fab
ED50, plaque reduction, RSV A2 [1]: 260 pM | EC50 [7]: 135 pM | ED50, plaque reduction, RSV A2 parental [8]: 256 pM

B11: IgG form of 69F6 (antibody, V domains shown)
VH: QMQLVQSGAEVRKPGESLKIACKGSGYSFTSYWIAWVRQMPGKGLEWLGIIFPNDSDATYSPSFQGQVTMSVDKSISTAYLQWNSLKASDTAVYFCARQYYLGSFESWGQGTTVTVSS
VL: EIVLTQSPSSLSASVGDRVTISCQASQDISNYLNWYQQKPGKAPRLLIYDASYLDTGVPSRFSGSGSGTDFTFTISSLQPEDFATYYCQQYDDLRGGFTFGPGTKVDVKR
fold less affinity than the IgG form of 30D8 [9]: ~10 fold | EC50 [2]: 63 pM | ED50, plaque reduction, RSV B/wash [3]: > 67000 pM | ED50, plaque reduction, RSV B-1 (F protein of RSV B-1): > 67000 pM

B12: Fab 104E5 (Fab, V domains shown)
VH: QVQLEQSGAEVKKPGSSVKVSCKPSGGTFDTYTISWVRQAPGQRLEWLGRIIPSLGETNYAHKLQGRVTITADKATSVVYMDLSDLTSEDAAVYYCAFRITGPVDWVWDYGMDVWGQGTTVSVSS
VL: DIQMTQSPSSLPASVGDRVTITCRASQNIKTYLNWYQQKPGRAPKLLISAVSNLQSGVPSRFSGTGSGTDFTLTISSLQPEDFATYYCQQSFSIPLTFGGGAKVEIKR
EC50 [4]: 80 pM | ED50, plaque reduction, RSV A2 [1]: 580 pM | ED50, plaque reduction, RSV A2 (mass concentration) [1]: 0.029 µg/mL

B13: IgG form of 104E5 (antibody, V domains shown)
VH: QVQLEQSGAEVKKPGSSVKVSCKPSGGTFDTYTISWVRQAPGQRLEWLGRIIPSLGETNYAHKLQGRVTITADKATSVVYMDLSDLTSEDAAVYYCAFRITGPVDWVWDYGMDVWGQGTTVSVSS
VL: DIQMTQSPSSLPASVGDRVTITCRASQNIKTYLNWYQQKPGRAPKLLISAVSNLQSGVPSRFSGTGSGTDFTLTISSLQPEDFATYYCQQSFSIPLTFGGGAKVEIKR
EC50 [5]: 14.5 pM | ED50, plaque reduction, RSV B/wash [3]: 8000 pM | ED50, plaque reduction, RSV A2 [6]: 800 pM | ED50, plaque reduction, RSV B-1 (F protein of RSV B-1): 1700 pM
